Assay results reported in the supplement of paper PMC10567573.

B1: ZNF232 (parent)
chain: HSGEKPFICKECGKAYGWCSELIR

Variants of: B1
Assay: protein stability index of a GFP-peptide fusion (GPS, HEK-293T) (PSI 1-6); higher = more stable
Settings: c terminus: a fixed tail appended
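Note: lentivirally expressed fusions sorted by FACS into six bins by GFP to DsRed ratio, PSI derived from sequencing read proportions per bin multiplied by bin number.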

Compared with HSGEKPGICKECGKAYGWCSELIR [F7G], HSGEKPFICKECGEAYGWCSELIR [K14E] is lower in protein stability index: 2.52 for the first, 1.61 for the second.

First: HSGEKPFICKECGGAYGWCSELIR [K14G]
Second: HSGEKPFICKECGAAYGWCSELIR [K14A]
The protein stability index of the first is higher: 2.8 for the first, 2.39 for the second.

First: HSGEKPFICKECGHAYGWCSELIR [K14H]
Second: HSGEKPFICKECGCAYGWCSELIR [K14C]
The protein stability index of the first is lower: 1.61 for the first, 2.73 for the second.

Going from HSGEKPFICKECGDAYGWCSELIR [K14D] to HSGEKPFICKECGFAYGWCSELIR [K14F], the protein stability index rises from 2.01 to 2.02.

Compared with HSGEKRFICKECGKAYGWCSELIR [P6R], HSGEKYFICKECGKAYGWCSELIR [P6Y] is lower in protein stability index: 2.23 for the first, 1.74 for the second.

Going from HSGEKTFICKECGKAYGWCSELIR [P6T] to HSGEKKFICKECGKAYGWCSELIR [P6K], the protein stability index rises from 2.3 to 2.91.

Compared with HSGEKAFICKECGKAYGWCSELIR [P6A], HSGEKLFICKECGKAYGWCSELIR [P6L] is higher in protein stability index: 1.74 for the first, 2.2 for the second.

Going from HSGEKHFICKECGKAYGWCSELIR [P6H] to HSGEKQFICKECGKAYGWCSELIR [P6Q], the protein stability index falls from 2.04 to 1.35.

HSGEKEFICKECGKAYGWCSELIR [P6E] and HSGEKNFICKECGKAYGWCSELIR [P6N] are the same in protein stability index: 2.37 for the first, 2.37 for the second.

Compared with HSGEKIFICKECGKAYGWCSELIR [P6I], HSGEKCFICKECGKAYGWCSELIR [P6C] is higher in protein stability index: 1.83 for the first, 2.45 for the second.

First: HSGEKVFICKECGKAYGWCSELIR [P6V]
Second: HSGEKWFICKECGKAYGWCSELIR [P6W]
The protein stability index of the first is higher: 2.12 for the first, 1.69 for the second.

Compared with HSGEKMFICKECGKAYGWCSELIR [P6M], HSGEKGFICKECGKAYGWCSELIR [P6G] is higher in protein stability index: 2.04 for the first, 2.08 for the second.

Compared with HSGEKDFICKECGKAYGWCSELIR [P6D], HSGEKFFICKECGKAYGWCSELIR [P6F] is lower in protein stability index: 2.68 for the first, 1.66 for the second.

Going from HSGEKSFICKECGKAYGWCSELIR [P6S] to HSGEKPFICYECGKAYGWCSELIR [K10Y], the protein stability index rises from 1.98 to 1.99.

First: HSGEKPFICLECGKAYGWCSELIR [K10L]
Second: HSGEKPFICGECGKAYGWCSELIR [K10G]
The protein stability index of the first is lower: 1.92 for the first, 1.96 for the second.

Compared with HSGEKPFICMECGKAYGWCSELIR [K10M], HSGEKPFICRECGKAYGWCSELIR [K10R] is lower in protein stability index: 1.96 for the first, 1.76 for the second.

First: HSGEKPFICSECGKAYGWCSELIR [K10S]
Second: HSGEKPFICPECGKAYGWCSELIR [K10P]
The protein stability index of the first is higher: 2.09 for the first, 2.07 for the second.

Going from HSGEKPFICTECGKAYGWCSELIR [K10T] to HSGEKPFICQECGKAYGWCSELIR [K10Q], the protein stability index rises from 1.66 to 2.01.

First: HSGEKPFICFECGKAYGWCSELIR [K10F]
Second: HSGEKPFICAECGKAYGWCSELIR [K10A]
The protein stability index of the first is higher: 1.9 for the first, 1.68 for the second.

First: HSGEKPFICCECGKAYGWCSELIR [K10C]
Second: HSGEKPFICVECGKAYGWCSELIR [K10V]
The protein stability index of the first is lower: 1.7 for the first, 1.82 for the second.

Compared with HSGEKPFICDECGKAYGWCSELIR [K10D], HSGEKPFICIECGKAYGWCSELIR [K10I] is higher in protein stability index: 1.66 for the first, 2.01 for the second.

Going from HSGEKPFICEECGKAYGWCSELIR [K10E] to HSGEKPFICWECGKAYGWCSELIR [K10W], the protein stability index falls from 2.33 to 1.84.

Compared with HSGEKPFICHECGKAYGWCSELIR [K10H], HSGEKPFICNECGKAYGWCSELIR [K10N] is higher in protein stability index: 1.75 for the first, 1.82 for the second.

Compared with HSGEKPFIFKECGKAYGWCSELIR [C9F], HSGEKPFIEKECGKAYGWCSELIR [C9E] is lower in protein stability index: 2.78 for the first, 2.3 for the second.

Compared with HSGEKPFILKECGKAYGWCSELIR [C9L], HSGEKPFIMKECGKAYGWCSELIR [C9M] is higher in protein stability index: 2.25 for the first, 2.6 for the second.

Going from HSGEKPFISKECGKAYGWCSELIR [C9S] to HSGEKPFIGKECGKAYGWCSELIR [C9G], the protein stability index rises from 1.92 to 1.97.

Compared with HSGEKPFIHKECGKAYGWCSELIR [C9H], HSGEKPFINKECGKAYGWCSELIR [C9N] is lower in protein stability index: 3.06 for the first, 2.09 for the second.

Going from HSGEKPFIYKECGKAYGWCSELIR [C9Y] to HSGEKPFIRKECGKAYGWCSELIR [C9R], the protein stability index falls from 2.68 to 2.32.

First: HSGEKPFIDKECGKAYGWCSELIR [C9D]
Second: HSGEKPFIIKECGKAYGWCSELIR [C9I]
The protein stability index of the first is higher: 2.71 for the first, 2.54 for the second.

Going from HSGEKPFIPKECGKAYGWCSELIR [C9P] to HSGEKPFITKECGKAYGWCSELIR [C9T], the protein stability index rises from 2.23 to 2.34.

Going from HSGEKPFIAKECGKAYGWCSELIR [C9A] to HSGEKPFIQKECGKAYGWCSELIR [C9Q], the protein stability index rises from 1.94 to 2.48.

Going from HSGEKPFIVKECGKAYGWCSELIR [C9V] to HSGEKPFIKKECGKAYGWCSELIR [C9K], the protein stability index falls from 2.33 to 2.09.

Going from HSGEKPFIWKECGKAYGWCSELIR [C9W] to HSGEKPFICKECVKAYGWCSELIR [G13V], the protein stability index falls from 2.43 to 2.39.

First: HSGEKPFICKECFKAYGWCSELIR [G13F]
Second: HSGEKPFICKECNKAYGWCSELIR [G13N]
The protein stability index of the first is lower: 1.49 for the first, 2.1 for the second.

Compared with HSGEKPFICKECQKAYGWCSELIR [G13Q], HSGEKPFICKECYKAYGWCSELIR [G13Y] is higher in protein stability index: 1.44 for the first, 2.12 for the second.

Going from HSGEKPFICKECDKAYGWCSELIR [G13D] to HSGEKPFICKECIKAYGWCSELIR [G13I], the protein stability index falls from 1.97 to 1.76.

First: HSGEKPFICKECCKAYGWCSELIR [G13C]
Second: HSGEKPFICKECEKAYGWCSELIR [G13E]
The protein stability index of the first is higher: 2.22 for the first, 2.14 for the second.

Compared with HSGEKPFICKECMKAYGWCSELIR [G13M], HSGEKPFICKECRKAYGWCSELIR [G13R] is lower in protein stability index: 1.89 for the first, 1.7 for the second.

First: HSGEKPFICKECHKAYGWCSELIR [G13H]
Second: HSGEKPFICKECSKAYGWCSELIR [G13S]
The protein stability index of the first is lower: 1.77 for the first, 1.88 for the second.

Compared with HSGEKPFICKECAKAYGWCSELIR [G13A], HSGEKPFICKECTKAYGWCSELIR [G13T] is lower in protein stability index: 2.29 for the first, 1.65 for the second.

Compared with HSGEKPFICKECKKAYGWCSELIR [G13K], HSGEKPFICKECPKAYGWCSELIR [G13P] is higher in protein stability index: 1.42 for the first, 1.65 for the second.

Going from HSGEKPFICKECLKAYGWCSELIR [G13L] to HSGEKPFICKECWKAYGWCSELIR [G13W], the protein stability index rises from 1.49 to 1.53.

First: HSGYKPFICKECGKAYGWCSELIR [E4Y]
Second: HSGNKPFICKECGKAYGWCSELIR [E4N]
The protein stability index of the first is lower: 1.81 for the first, 1.95 for the second.

Compared with HSGRKPFICKECGKAYGWCSELIR [E4R], HSGWKPFICKECGKAYGWCSELIR [E4W] is lower in protein stability index: 1.6 for the first, 1.54 for the second.

Compared with HSGQKPFICKECGKAYGWCSELIR [E4Q], HSGMKPFICKECGKAYGWCSELIR [E4M] is lower in protein stability index: 1.53 for the first, 1.46 for the second.

First: HSGVKPFICKECGKAYGWCSELIR [E4V]
Second: HSGTKPFICKECGKAYGWCSELIR [E4T]
The protein stability index of the first is lower: 1.05 for the first, 1.29 for the second.

First: HSGPKPFICKECGKAYGWCSELIR [E4P]
Second: HSGSKPFICKECGKAYGWCSELIR [E4S]
The protein stability index of the first is lower: 2.22 for the first, 2.52 for the second.
